Test results from publication PMC6982183 (International Journal of Molecular Sciences, 2019).

Molecular target: α-synuclein (human, UniProt P37840 1-140)
Assay: quartz crystal microbalance (QCM); α-synuclein (1 μM) immobilised by amine coupling; 2.5, 5, 10, 15, 20 nM AD(Cys) added; citrate buffer (pH 4.0); kon, koff from linear regression of kobs against concentration
Conditions: both partners purified

B1: Hsp60 AD(Cys), isolated apical domain of human Hsp60 with cysteines at the N- and C-termini (domain or fragment)
chain: CGMKFDRGYISPYFINTSKGQKCEFQDAYVLLSEKKISSIQSIVPALEIANAHRKPLVIIAEDVDGEALSTLVLNRLKVGLQVVAVKAPGFGDNRKNQLKDMAIATGGAVFGEEGLTLNLEDVQPHDLGKVGEVIVTKDDAMLLKGKGDKAQIEKRIQEIIEQLDVTTSEYEKEKLNERLAKLSDC
modifications: disulfide bond between the two engineered cysteines at the N- and C-termini
notes: Cysteine introduced at the N-terminus; the primer ACCATGTGCGGCATGAAATTCGATCGCGGTT encodes Met-Cys-GMKFDRG; Apical domain of human Hsp60; Cysteine introduced at the C-terminus of the domain, before the His6 tag; the primer AGTGATTGCCACCACCACCACCACCACTGA encodes SD-Cys-HHHHHH-stop; A start Met precedes the N-terminal Cys in the construct; Monomer by gel filtration; also called …
Question: With B1 as the binder, how does the Kd read?
Answer: 5.04 nM

Question: And the koff?
Answer: 0.00295 s⁻¹

Question: What about the kon of the same binder?
Answer: 585000 M⁻¹ s⁻¹
